{
  "source": "paper PMC9499004",
  "about": "“Impact of G-Quadruplex Structures on Methylation of Model Substrates by DNA Methyltransferase Dnmt3a”",
  "key": {"M.SssI": {"molecular_target": "M.SssI (prokaryotic (species ), UniProt P15840 1-386)", "sequence (P15840 whole entry)": "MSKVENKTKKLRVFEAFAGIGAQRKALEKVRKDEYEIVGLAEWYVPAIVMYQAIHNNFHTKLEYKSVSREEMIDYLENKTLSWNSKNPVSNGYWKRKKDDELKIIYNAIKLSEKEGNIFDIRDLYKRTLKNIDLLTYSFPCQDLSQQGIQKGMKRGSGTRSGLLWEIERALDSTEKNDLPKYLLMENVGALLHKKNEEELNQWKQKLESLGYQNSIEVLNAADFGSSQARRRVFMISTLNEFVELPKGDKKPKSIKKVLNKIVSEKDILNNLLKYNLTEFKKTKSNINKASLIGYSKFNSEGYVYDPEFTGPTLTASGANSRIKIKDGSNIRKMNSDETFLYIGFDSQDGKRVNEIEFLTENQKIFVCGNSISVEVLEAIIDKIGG", "test": "EMSA; 100 uM AdoHcy; 20 mM HEPES-NaOH pH 7.5, 100 mM KCl, 1 mM EDTA, 1 mM DTT, 100 uM AdoHcy, 25 C (EMSA: + 6% glycerol, 30 min, 60 nM DNA, gel at 4 C; FP: 10 nM DNA)", "conditions": "protein: recombinant; label: FAM; 30 bp duplex"}, "Dnmt3a-CD": {"molecular_target": "Dnmt3a-CD (murine, UniProt O88508 608-908)", "test": "EMSA; 1 uM protein, 100 uM AdoHcy; 20 mM HEPES-NaOH pH 7.5, 100 mM KCl, 1 mM EDTA, 1 mM DTT, 100 uM AdoHcy, 25 C (EMSA: + 6% glycerol, 30 min, 60 nM DNA, gel at 4 C; FP: 10 nM DNA)", "conditions": "protein: recombinant; tags: N-terminal 6xHis; chain copies: 2; label: fluorophore (FAM or TAMRA); no G4"}, "[1]": {"molecular_target": "T1, AIR-Dnmt3a2 (autoinhibition removed) (murine, UniProt O88508-2 1-689, Y303A;Y305A)", "test": "EMSA; 1 uM protein, 100 uM AdoHcy; 20 mM HEPES-NaOH pH 7.5, 100 mM KCl, 1 mM EDTA, 1 mM DTT, 100 uM AdoHcy, 25 C (EMSA: + 6% glycerol, 30 min, 60 nM DNA, gel at 4 C; FP: 10 nM DNA)"}, "[2]": {"molecular_target": "T1, AIR-Dnmt3a2 (autoinhibition removed)", "test": "EMSA; 1 uM protein, 100 uM AdoHcy; no difference from 76Tf/95Bf-G4; 20 mM HEPES-NaOH pH 7.5, 100 mM KCl, 1 mM EDTA, 1 mM DTT, 100 uM AdoHcy, 25 C (EMSA: + 6% glycerol, 30 min, 60 nM DNA, gel at 4 C; FP: 10 nM DNA)"}},
  "data": [
    {"binder": "30Tf/30Bf (dsDNA) DNA 1: CTGAATACTACTTGCGCTCTCTAACCTGAT DNA 2: ATCAGGTTAGAGAGCGCAAGTAGTATTCAG", "values": [
      {"measurement": "binding result", "setting": "M.SssI", "result": "binds"}
    ]},
    {"binder": "AGGGAGTGAGTGAGTGAGTATA (ssDNA)", "note": "[22(GAGT)4f]", "values": [
      {"measurement": "binding signal", "setting": "Dnmt3a-CD", "result": "~4", "unit": "fold weaker than 19G4f"},
      {"measurement": "binding signal", "setting": "[1]", "result": "~4", "unit": "fold weaker than 19G4f"}
    ]},
    {"binder": "76Tf/76Bf (dsDNA) DNA 1: TCCTTTCGCGCTTGGATCCTATGAGCGTTACTCGAGCATATGGCTCAGCTGCCAGGCACCAGTGTCAGCGTCCTAT DNA 2: ATAGGACGCTGACACTGGTGCTTGGCAGCTGAGCCATATGCTCGAGTAACGCTCATAGGATCCAAGCGCGAAAGGA", "values": [
      {"measurement": "binding result", "setting": "[2]", "result": "binds"}
    ]}
  ]
}
